Common to all, as to test: cryo-EM structure
The target of series [1] is VP5* of S567C-A590C VP4 (foot-locked mutant), on recoated TLPs (rhesus rotavirus (RRV, G3 serotype)).
Series [2] deals with VP6 of rhesus rotavirus, in DLPs and TLPs (rhesus rotavirus (RRV, G3 serotype)).
Series [3] shares this target. The source holds these as a separate data set.
For series [4] the target is unchanged. This is another data set of the same source.
Series [5] deals with the molecule itself.
Series [6] deals with the molecule itself. This is another data set of the same source.
Another series has as its target VP5* on native RRV TLPs (rhesus rotavirus (RRV, G3 serotype), UniProt P12473 248-776).

Read-outs that look alike come from different tables or passages of the source.

By stoichiometry N is commonly meant a count of units in the complex or per binding partner. In the case of “VP5* of S567C-A590C VP4 (foot-locked mutant), on recoated TLPs (domain or fragment)”, the stoichiometry N in series [1] was determined as 3.
Take “VP6 of rhesus rotavirus, in DLPs and TLPs (natural protein)”: the stoichiometry N in series [2], in series [3] and in series [4] was 3 in each case.

B1: VP5* (C-terminal trypsin cleavage fragment of rhesus rotavirus VP4), wild type, on recoated TLPs (domain or fragment, rhesus rotavirus (RRV, G3 serotype), UniProt P12473 248-776, looked up)
chain: AQANEDIVVSKTSLWKEMQYNRDITIRFKFASSIVKSGGLGYKWSEISFKPANYQYTYTRDGEDVTAHTTCSVNGMNDFNFNGGSLPTDFIISRYEVIKENSYVYVDYWDDSQAFRNMVYVRSLAANLNSVICTGGDYSFALPVGQWPVMTGGAVSLHSAGVTLSTQFTDFVSFNSLRFRFRLTVEEPSFSITRTRVGGLYGLPAAYPNNGKEYYEVAGRLSLISLVPSNDDYQTPITNSVTVRQDLERQLGELREEFNALSQEIAMSQLIYLALLPLDMFSMFSGIKSTIDAAKSMATSVMKKFKKSGLANSVSTLTDSLSDAASSISRGASIRSVGSSASAWTDVSTQITDVSSSVSSISTQTSTISRRLRLKEMATQTEGMNFDDISAAVLKTKIDRSTQISPNTLPDIVTEASEKFIPNRAYRVINNDEVFEAGTDGRYFAYRVETFDEIPFDVQKFADLVTDSPVISAIIDFKTLKNLNDNYGISRQQAFNLLRSDPRVLREFINQDNPIIRNRIEQLIMQCRL
For B1, the “stoichiometry N” value in the series “cryo-EM structure [5]” was 3.

B2: VP7 of rhesus rotavirus, recombinant, wild type (natural protein, rhesus rotavirus (RRV, G3 serotype), UniProt P12476 51-326, looked up)
chain: QNYGINLPITGSMDTAYANSTQEETFLTSTLCLYYPTEAATEINDNSWKDTLSQLFLTKGWPTGSVYFKEYTDIASFSVDPQLYCDYNVVLMKYDATLQLDMSELADLILNEWLCNPMDITLYYYQQTDEANKWISMGSSCTIKVCPLNTQTLGIGCLTTDTATFEEVATAEKLVITDVVDGVNHKLDVTTATCTIRNCKKLGPRENVAVIQVGGSDVLDITADPTTAPQTERMMRINWKKWWQVFYTVVDYVNQIIQAMSKRSRSLNSAAFYYRI
Turning to B2, in the series “cryo-EM structure [6]”, the “stoichiometry N” value turned out to be 3.

B3: VP7 on native RRV TLPs (natural protein, rhesus rotavirus (RRV, G3 serotype), UniProt P12476 51-326, looked up)
chain: B2 chain
On to B3, for which the binding result with VP5* on native RRV TLPs is reported as “binds”.

For the origin of these results see PMC8297411 (Nature, 2021).
